Measurements reported in publication PMC7865074.

B1: MPDZ, PDZ domain 6 (N2H construct) (domain or fragment)
chain: TINIAKGNSSLGMTVSANKDGLGMIVRSIIHGGAISRDGRIAIGDCILSINEESTISVTNAQARAMLRRHSLIGPDIKITYV
B2: Rho GTPase-activating protein 21, PDZ domain (N2H construct) (domain or fragment)
chain: TVTLKRTSQGFGFTLRHFIVYPPESAIQFSYKDEENGNRGGKQRNRLEPMDTIFVKQVKEGGPAFEAGLCTGDRIIKVNGESVIGKTYSQVIALIQNSDTTLELSVMPKD
B3: T-lymphoma invasion and metastasis-inducing protein 2, PDZ domain (N2H construct) (domain or fragment)
chain: DVQLTKTGSVCDFGFAVTAQVDERQHLSRIFISDVLPDGLAYGEGLRKGNEIMTLNGEAVSDLDLKQMEALFSEKSVGLTLIARPPD
B4: PDZ domain-containing protein GIPC3, PDZ domain (N2H construct) (domain or fragment)
chain: EVEVTKTEDALGLTITDNGAGYAFIKRIKEGSIINRIEAVCVGDSIEAINDHSIVGCRHYEVAKMLRELPKSQPFTLRLVQ
B5: Ligand of Numb protein X 2, PDZ domain 2 (N2H construct) (domain or fragment)
chain: QVALHKRDSGEQLGIKLVRRTDEPGVFILDLLEGGLAAQDGRLSSNDRVLAINGHDLKYGTPELAAQIIQASGERVNLTIARPG
B6: SH3 and multiple ankyrin repeat domains protein 3, PDZ domain (N2H construct) (domain or fragment)
chain: VAVLQKRDHEGFGFVLRGAKAETPIEEFTPTPAFPALQYLESVDVEGVAWRAGLRTGDFLIEVNGVNVVKVGHKQVVALIRQGGNRLVMKVVSVT
B7: Regulating synaptic membrane exocytosis protein 2, PDZ domain (N2H construct) (domain or fragment)
chain: DGSVPRDSGAMLGLKVVGGKMTESGRLCAFITKVKKGSLADTVGHLRPGDEVLEWNGRLLQGATFEEVYNIILESKPEPQVELVVSR
B8: Zona Occludens 3; Tight Junction Protein 3, PDZ domain 1 (N2H construct) (domain or fragment)
chain: TATLSKDPRRGFGIAISGGRDRPGGSMVVSDVVPGGPAEGRLQTGDHIVMVNGVSMENATSAFAIQILKTCTKMANITVKRPR
B9: SH3 and multiple ankyrin repeat domains protein 1, PDZ domain (N2H construct) (domain or fragment)
chain: TVLLQKKDSEGFGFVLRGAKAQTPIEEFTPTPAFPALQYLESVDEGGVAWRAGLRMGDFLIEVNGQNVVKVGHRQVVNMIRQGGNTLMVKVVMVT
B10: Whirlin, PDZ domain 3 (N2H construct) (domain or fragment)
chain: LVRVKKSAATLGIAIEGGANTRQPLPRIVTIQRGGSAHNCGQLKVGHVILEVNGLTLRGKEHREAARIIAEAFKTKDRDYIDFL
B11: Protein piccolo, PDZ domain (N2H construct) (domain or fragment)
chain: RIKITRDSKDHTVSGNGLGIRIVGGKEIPGHSGEIGAYIAKILPGGSAEQTGKLMEGMQVLEWNGIPLTSKTYEEVQSIISQQSGEAEICVRLDL
B12: PDZ and LIM domain protein 1, PDZ domain (N2H construct) (domain or fragment)
chain: TQQIDLQGPGPWGFRLVGGKDFEQPLAISRVTPGSKAALANLCIGDVITAIDGENTSNMTHLEAQNRIKGCTDNLTLTVARSE
B13: Partitioning defective 3 homolog B, PDZ domain 1 (N2H construct) (domain or fragment)
chain: TRTVEISGEGGPLGIHVVPFFSSLSGRILGLFIRGIEDNSRSKREGLFHENECIVKINNVDLVDKTFAQAQDVFRQAMKSPSVLLHVLP
B14: SH3 and multiple ankyrin repeat domains protein 2, PDZ domain (N2H construct) (domain or fragment)
chain: TVVLQKKDNEGFGFVLRGAKADTPIEEFTPTPAFPALQYLESVDEGGVAWQAGLRTGDFLIEVNNENVVKVGHRQVVNMIRQGGNHLVLKVVTVT
B15: PDZ domain-containing protein 4, PDZ domain (N2H construct) (domain or fragment)
chain: EVELYKSSHRDKLGLMVCYRTDDEEDLGIYVGEVNPNSIAAKDGRIREGDRIIQINGVDVQNREEAVAILSQEENTNISLLVARP
B16: Zona Occludens 3; Tight Junction Protein 3, PDZ domain 3 (N2H construct) (domain or fragment)
chain: DTRVVRFLKGKSIGLRLAGGNDVGIFVSGVQAGSPADGQGIQEGDQILQVNDVPFQNLTREEAVQFL
B17: Membrane-associated guanylate kinase, WW and PDZ domain-containing protein 2, PDZ domain 1 (N2H construct) (domain or fragment)
chain: ESVIGRNPEGQLGFELKGGAENGQFPYLGEVKPGKVAYESGSKLVSEELLLEVNETPVAGLTIRDVLAVIKHCKDPLRLKCVKQG
B18: Synaptojanin-2-binding protein, PDZ domain (N2H construct) (domain or fragment)
chain: EINLTRGPSGLGFNIVGGTDQQYVSNDSGIYVSRIKENGAAALDGRLQEGDKILSVNGQDLKNLLHQDAVDLFRNAGYAVSLRVQHRL
B19: PDZ domain-containing protein 2, PDZ domain 2 (N2H construct) (domain or fragment)
chain: KMELLKESDGLGIQVSGGRGSKRSPHAIVVTQVKEGGAAHRDGRLSLGDELLVINGHLLVGLSHEEAVAILRSATGMVQLVVASKE
B20: Beta-1-syntrophin, PDZ domain (N2H construct) (domain or fragment)
chain: GVKVLKQELGGLGISIKGGKENKMPILISKIFKGLAADQTQALYVGDAILSVNGADLRDATHDEAVQALKRAGKEVLLEVKYMR
B21: 26S proteasome non-ATPase regulatory subunit 9, PDZ domain (N2H construct) (domain or fragment)
chain: QARDMAEAHKEAMSRKLGQSESQGPPRAFAKVNSISPGSPASIAGLQVDDEIVEFGSVNTQNFQSLHNIGSVVQHSEGKPLNVTVIRR
B22: Rho guanine nucleotide exchange factor 12, PDZ domain (N2H construct) (domain or fragment)
chain: CVIIQKDDNGFGLTVSGDNPVFVQSVKEDGAAMRAGVQTGDRIIKVNGTLVTHSNHLEVVKLIKSGSYVALTVQGRPPGS
B23: MAGUK p55 subfamily member 5, PDZ domain (N2H construct) (domain or fragment)
chain: IVRIEKARDIPLGATVRNEMDSVIISRIVKGGAAEKSGLLHEGDEVLEINGIEIRGKDVNEVFDLLSDMHGTLTFVLIPSQ

Molecular target: full-length (FL) NS5 protein (wt PBM) of West Nile virus (West Nile virus)
Test: split reporter (BiFC, NanoBiT); N2H split-NanoLuc in HEK-293T cells; full-length NS5 with 257 single PDZ domains; read-out NLR with NS5 minus NLR with NS5ΔPBM, three experiments; hits > 0.25

Row | Binder | NLR(NS5) - NLR(NS5ΔPBM)
1 | B1 | 0.38
2 | B2 | < 0.25
3 | B3 | 0.65
4 | B4 | 2.15
5 | B5 | 0.25
6 | B6 | < 0.25
7 | B7 | 11.2
8 | B8 | 3.05
9 | B9 | 1.66
10 | B10 | 0.38
11 | B11 | 0.57
12 | B12 | 27.2
13 | B13 | 0.42
14 | B14 | < 0.25
15 | B15 | 0.85
16 | B16 | 0.72
17 | B17 | 0.26
18 | B18 | < 0.25
19 | B19 | 0.49
20 | B20 | < 0.25
21 | B21 | 1.21
22 | B22 | < 0.25
23 | B23 | 0.26
